These results are taken from patent US20240218065A1 (SHENGHE CHINA BIOPHARMACEUTICAL, published 2024).

The target of assay [1] is T1, Human-GPC3-His (human, UniProt P51654 25-559, limits assumed).
T1 construct: Coated on the ELISA plate; also called GPC-3 protein; GPC3 protein; not shown: His tag
Description: ELISA: Human-GPC3-His coated at 0.5 µg/mL, antibody titrated 3-fold from 10 µg/mL, HRP goat anti-human IgG-Fc, OD450-OD570. Here is the method: (§1) Human-GPC3-His was diluted to 0.5 μg/mL with PBS buffer at pH 7.4, added into the 96-well ELISA plate at 100 μL per well, coated overnight at 4° C., and blocked with 1% BSA blocking solution for 1 hour. The plate was washed 3 times with PBST, and the constructed antibody was diluted to 10 μg/mL with 0.5% BSA sample diluent as the starting concentration, and then diluted by 3-fold gradient (11 gradients in total) and incubated at 37° C. for 1 h at 100 μL per well. The plate was washed 3 times with PBST, and then HRP-labelled goat anti-human IgG-Fc was diluted with the sample diluent at 1:20000. 100 μL was added into each well, and incubated at room temperature for 1 hour. A negative control (blank well and IgG1 isotype control) and a positive control were set, and the positive control was a GPC-3 and CD3 bispecial antibody from the literature Hs, A, et al. “Engineering a bispecific antibody with a common light chain: Identification and optimization of an anti-CD3 epsilon and anti-GPC3 bispecific antibody, ERY974.” Methods 154 (2019): 10-20. (The GPC-3 and CD3 bispecial antibody sequence consists of SEQ ID No. 22, SEQ ID No. 23, and SEQ ID No. 24). The plate was washed 4 times with PBST, and 100 μL of TMB substrate was added into each well, and incubated at room temperature without light for 10 minutes. 100 μL of 1 M HCl solution was added into each well to terminate the color development reaction. The absorbance value of each well in the 96-well plate was determined by selecting the wavelength of 450 nm and the reference wavelength of 570 nm on a multifunctional enzyme marker, and the absorbance value (OD)=OD₄₅₀ₙₘ−OD₅₇₀ₙₘ. The logarithm of the concentration of the constructed antibody was taken as the abscissa, and the measured absorbance value of each well was taken as the ordinate, and the Sigmoidaldose-response (Variable Slope) method (GraphPad Prism software, GraphPad Software, San Diego, California) was selected for nonlinear regression to obtain the binding curve of the target antibody to the GPC-3 protein.
For orientation: An ELISA detects its analyte on a solid surface through an enzyme-linked reagent.

The target of assay [2] is T1, Human-GPC3-His. The description is as above. Here is the method: as §1
This is another data set of the same source.

The target in assay [3] is T1, Human-GPC3-His. The assay is described as above. The method, then: as §1
The source holds these as a separate data set.

Assay [4] addresses T2, Human-NKP30-His (Kactus, cat: NKP-HM430) (human, UniProt O14931 19-138, limits assumed).
T2 construct: also called NKP30 protein; NKP30-his protein; not shown: His tag
T2 sequence (looked up): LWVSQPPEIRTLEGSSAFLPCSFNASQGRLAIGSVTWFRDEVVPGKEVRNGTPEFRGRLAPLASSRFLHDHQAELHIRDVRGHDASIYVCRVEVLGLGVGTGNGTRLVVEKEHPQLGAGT
Description: ELISA: Human-NKP30-His coated, antibody titrated 3-fold from 10 µg/mL, HRP goat anti-human IgG-Fc, OD450-OD570. Here is the method:
(§2) Human-NKP30-His (Kactus, cat: NKP-HM430) was diluted to […] with PBS buffer at pH 7.4, added into the 96-well ELISA plate at 100 μL per well, coated overnight at 4° C., and blocked with 1% BSA blocking solution for 1 hour. The plate was washed 3 times with PBST, and the constructed antibodies were diluted to 10 μg/mL with 0.5% BSA sample diluent as the starting concentration, and then diluted by 3-fold gradient (11 gradients in total). A negative control (blank well and IgG1 isotype control) and a positive control were set, and the positive control was a NKP30 humanized antibody (sequence shown in SEQ ID No. 28), and incubated at 37° C. for 1 h at 100 μL per well. The plate was washed 3 times with PBST, and then HRP-labelled goat anti-human IgG-Fc was diluted with the sample diluent at 1:20000. 100 μL was added into each well, and incubated at room temperature for 1 hour. The plate was washed 4 times with PBST, and 100 μL of TMB substrate was added into each well, and incubated at room temperature without light for 10 minutes. 100 μL of 1 M HCl solution was added into each well to terminate the color development reaction. The absorbance value of each well in the 96-well plate was determined by selecting the wavelength of 450 nm and the reference wavelength of 570 nm on a multifunctional enzyme marker, and the absorbance value (OD)=OD₄₅₀ₙₘ−OD₅₇₀ₙₘ. The logarithm of the concentration of the constructed antibody was taken as the abscissa, and the measured absorbance value of each well was taken as the ordinate, and the Sigmoidaldose-response (Variable Slope) method (GraphPad Prism software, GraphPad Software, San Diego, California) was selected for nonlinear regression to obtain the binding curve of the target antibody to NKP30.

Assay [5] concerns the target T2, Human-NKP30-His (Kactus, cat: NKP-HM430). Described as above. The method, then:
as §2
The source holds these as a separate data set.

Numbering of substitutions follows the chain as printed. Read-outs that look alike come from different tables or passages of the source.

T1 sequence (P51654 25-559 limits assumed): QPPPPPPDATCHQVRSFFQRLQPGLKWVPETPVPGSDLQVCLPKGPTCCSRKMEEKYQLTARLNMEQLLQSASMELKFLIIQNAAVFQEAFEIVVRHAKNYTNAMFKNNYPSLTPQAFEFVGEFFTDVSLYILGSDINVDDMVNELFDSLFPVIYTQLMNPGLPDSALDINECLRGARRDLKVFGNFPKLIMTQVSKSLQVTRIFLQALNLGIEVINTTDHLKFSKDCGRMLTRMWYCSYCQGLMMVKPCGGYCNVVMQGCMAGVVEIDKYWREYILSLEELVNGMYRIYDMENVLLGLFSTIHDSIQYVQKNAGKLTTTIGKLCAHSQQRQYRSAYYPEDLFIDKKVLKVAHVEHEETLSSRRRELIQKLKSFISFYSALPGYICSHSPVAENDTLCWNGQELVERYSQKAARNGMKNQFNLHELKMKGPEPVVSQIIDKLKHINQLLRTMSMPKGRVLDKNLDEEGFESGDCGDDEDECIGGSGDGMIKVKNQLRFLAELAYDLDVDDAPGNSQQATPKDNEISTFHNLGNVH

B1: GPC-3 and CD3 bispecial antibody (ERY974) (bispecific antibody, human IgG4 S228P, kappa, N297A)
chain 1: QVQLVQSGAEVKKPGASVTVSCKASGYTFTDYEMHWIRQPPGEGLEWIGAIDGPTPDTAYSEKFKGRVTLTADKSTSTAYMELSSLTSEDTAVYYCTRFYSYTYWGQGTLVTVSSASTKGPSVFPLAPCSRSTSESTAALGCLVKDYFPEPVTVSWNSGALTSGVHTFPAVLQSSGLYSLSSVVTVPSSSLGTQTYTCNVDHKPSNTKVDKRVESKYGPPCPPCPAPEFRGGPKVFLFPPKPKDTLMISRTPEVTCVVVDVSQEDPEVQFNWYVDGVEVHNAKTKPREEQFASTYRVVSVLTVLHQDWLNGKEYKCKVSNKGLPSSIEKTISKAKGQPREPQVYTLPPSQEEMTKNQVSLTCLVKGFYPSDIAVEWESNGQPENNYKTTPPVLDSDGSFFLYSKLTVDKSRWQEGNVFSCSVMHEALHNHYTQESLSLSP
chain 2: QVQLVESGGGVVQPGGSLRLSCAASGFTFSNAWMHWVRQAPGKGLEWVAQIKDKSQNYATYVAESVKGRFTISRADSKNSIYLQMNSLKTEDTAVYYCRYVHYAAGYGVDIWGQGTTVTVSSASTKGPSVFPLAPCSRSTSESTAALGCLVKDYFPEPVTVSWNSGALTSGVHTFPAVLQSSGLYSLSSVVTVPSSSLGTKTYTCNVDHKPSNTKVDKRVESKYGPPCPPCPAPEFRGGPKVFLFPPKPKDTLMISRTPEVTCVVVDVSQEDPEVQFNWYVDGVEVHNAKTKPREEQFASTYRVVSSLTVLHQDWLNGKEYKCKVSNKGLPSSIEKTISKAKGQPREPQVYTLPPSQKEMTKNQVSLTCLVKGFYPSDIAVEWESNGQPENNYKTTPPVLDSSGSFFLYSKLTVDKSRWQEGNVFSCSVMHEALHNHYTQKSLSLSP
chain 3: DIVMTQSPLSLPVTPGEPASISCRSSQPLVHSNRNTYLHWYQQKPGQAPRLLIYKVSNRFSGVPDRFSGSGSGTDFTLKISRVEAEDVGVYYCGQGTQVPYTFGQGTKLEIKRTVAAPSVFIFPPSDEQLKSGTASVVCLLNNFYPREAKVQWKVDNALQSGNSQESVTEQDSKDSTYSLSSTLTLSKADYEKHKVYACEVTHQGLSSPVTKSFNRGEC
notes: also called anti-CD3 epsilon and anti-GPC3 bispecific antibody
By EC50 (read off the curve) is commonly meant the concentration needed to bring the measured effect to its halfway point. Low readings indicate greater potency, high ones weaker potency. In the case of B1, the results for the concentration for a half-maximal effect (EC50 (read off the curve)) in assay [1], in assay [2] and in assay [3] were approximately 0.03 µg/mL, approximately 0.01 µg/mL and approximately 0.03 µg/mL, respectively.

B2: GN15-G (bispecific antibody, human IgG1, kappa)
light 1: QVQLVQSGAEVKKPGASVKVSCKASGYTFTDYEMHWVRQAPGQGLEWMGALDPKTGDTAYSQKFKGRVTLTADKSTSTAYMELSSLTSEDTAVYYCTRFYSYTYWGQGTLVTVSSRTVAAPSVFIFPPSDEQLKSGTASVVCLLNNFYPREAKVQWKVDNALQSGNSQESVTEQDSKDSTYSLSSTLTLSKADYEKHKVYACEVTHQGLSSPVTKSFNRGECGGGGSGGGGSGGGGSGGGGSEVQLVESGGGLVQPGGSLRLSCAASGITFSRSVMGWFRQAPGKLRELVAGITSDDNTDYADSVKGRFTISRDNSKNTLYLQMNSLRAEDTAVYYCNILPDSRLGWGQGTLVTVSS
heavy 1: not shown
heavy 2: QVQLVQSGAEVKKPGASVKVSCKASGYTFTDYEMHWVRQAPGQGLEWMGALDPKTGDTAYSQKFKGRVTLTADKSTSTAYMELSSLTSEDTAVYYCTRFYSYTYWGQGTLVTVSSASTKGPSVFPLAPSSKSTSGGTAALGCLVKDYFPEPVTVSWNSGALTSGVHTFPAVLQSSGLYSLSSVVTVPSSSLGTQTYICNVNHKPSNTKVDKKVEPKSCDKTHTCPPCPGGGGSGGGGSPALLLLLLLRPPATRGITCPPPMSVEHADIWVKSYSLYSRERYICNSGFKRKAGTSSLTECVLNKATNVAHWTTPSLKCIRDPALVHQRPAPPSTVTTAGVTPQPESLSPSGKEGGGGSGGGGSAPELLGGPSVFLFPPKPKDTLMISRTPEVTCVVVDVSHEDPEVKFNWYVDGVEVHNAKTKPREEQYNSTYRVVSVLTVLHQDWLNGKEYKCKVSNKALPAPIEKTISKAKGQPREPQVYTLPPSRDELTKNQVSLTCLVKGFYPSDIAVEWESNGQPENNYKTTPPVLDSDGSFFLASKLTVDKSRWQQGNVFSCSVMHEALHNHYTQKSLSLSPGK
light 2: B1 chain 3 with I2V, P28S, Q42L, A48S, R50Q, G94S, G96N, Q98H, Y101P
notes: Trifunctional antibody against GPC-3 and NKP30 with IL-15 and IL-15Rα sushi between CH1 and CH2; also called constructed antibody GN15-G; multifunctional antibody
For the molecule B2, the figures for the “EC50 (read off the curve)” value in assay [4] and in assay [2] were approximately 0.03 µg/mL and approximately 0.01 µg/mL, respectively.

B3: GN15-E (bispecific antibody, human IgG1, kappa)
light 1: EVQLVESGGGLVQPGGSLRLSCAASGITFSRSVMGWFRQAPGKLRELVAGITSDDNTDYADSVKGRFTISRDNSKNTLYLQMNSLRAEDTAVYYCNILPDSRLGWGQGTLVTVSSGGGGSGGGGSGGGGSQVQLVQSGAEVKKPGASVKVSCKASGYTFTDYEMHWVRQAPGQGLEWMGALDPKTGDTAYSQKFKGRVTLTADKSTSTAYMELSSLTSEDTAVYYCTRFYSYTYWGQGTLVTVSSRTVAAPSVFIFPPSDEQLKSGTASVVCLLNNFYPREAKVQWKVDNALQSGNSQESVTEQDSKDSTYSLSSTLTLSKADYEKHKVYACEVTHQGLSSPVTKSFNRGEC
heavy 1: not shown
heavy 2: B2 heavy 2
light 2: B1 chain 3 with I2V, P28S, Q42L, A48S, R50Q, G94S, G96N, Q98H, Y101P
notes: Trifunctional antibody against GPC-3 and NKP30 with IL-15 and IL-15Rα sushi between CH1 and CH2; also called constructed antibody GN15-E; multifunctional antibody
For B3, the entries for the “EC50 (read off the curve)” value in assay [4] and in assay [3] were approximately 0.04 µg/mL and approximately 0.06 µg/mL, respectively.

B4: GN15-F (bispecific antibody, human IgG1, kappa)
light: B1 chain 3 with I2V, P28S, Q42L, A48S, R50Q, G94S, G96N, Q98H, Y101P
heavy 1: not shown
heavy 2: B2 heavy 2
notes: Trifunctional antibody against GPC-3 and NKP30 with IL-15 and IL-15Rα sushi between CH1 and CH2; also called constructed antibody GN15-F; multifunctional antibody
As to B4, the concentration giving a half-maximal response (EC50 (read off the curve)) in assay [4] is approximately 0.03 µg/mL; in assay [3], approximately 0.02 µg/mL.

B5: GN15-C (bispecific antibody, human IgG1, kappa)
light: DVVMTQSPLSLPVTPGEPASISCRSSQSLVHSNRNTYLHWYLQKPGQSPQLLIYKVSNRFSGVPDRFSGSGSGTDFTLKISRVEAEDVGVYYCSQNTHVPPTFGQGTKLEIKRTVAAPSVFIFPPSDEQLKSGTASVVCLLNNFYPREAKVQWKVDNALQSGNSQESVTEQDSKDSTYSLSSTLTLSKADYEKHKVYACEVTHQGLSSPVTKSFNRGECGGGGSGGGGSGGGGSGGGGSEVQLVESGGGLVQPGGSLRLSCAASGITFSRSVMGWFRQAPGKLRELVAGITSDDNTDYADSVKGRFTISRDNSKNTLYLQMNSLRAEDTAVYYCNILPDSRLGWGQGTLVTVSS
heavy 1: not shown
heavy 2: B2 heavy 2
notes: Trifunctional antibody against GPC-3 and NKP30 with IL-15 and IL-15Rα sushi between CH1 and CH2; also called constructed antibody GN15-C; multifunctional antibody
Turning to B5, the results for the “EC50 (read off the curve)” value in assay [1] and in assay [5] were approximately 0.03 µg/mL and approximately 0.05 µg/mL, respectively.
